For assay [1], the target named is yeast actin monomers (S. cerevisiae, UniProt P60010 1-375). The assay can be described thus: native gel or EMSA. In general terms: Mobility shift assays separate free from complexed probe on a gel.
The target of assay [2] is T1, yeast capping protein Cap1/2p, purified (S. cerevisiae, UniProt P28495;P13517).
T1 sequence 1: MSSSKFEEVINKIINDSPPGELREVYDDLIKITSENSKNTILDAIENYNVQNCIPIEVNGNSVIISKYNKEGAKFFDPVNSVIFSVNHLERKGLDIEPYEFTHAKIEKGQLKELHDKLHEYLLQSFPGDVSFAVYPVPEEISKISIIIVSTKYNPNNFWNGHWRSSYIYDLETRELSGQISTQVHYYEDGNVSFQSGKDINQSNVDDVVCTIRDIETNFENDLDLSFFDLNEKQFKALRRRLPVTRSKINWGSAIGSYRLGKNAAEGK
T1 sequence 2: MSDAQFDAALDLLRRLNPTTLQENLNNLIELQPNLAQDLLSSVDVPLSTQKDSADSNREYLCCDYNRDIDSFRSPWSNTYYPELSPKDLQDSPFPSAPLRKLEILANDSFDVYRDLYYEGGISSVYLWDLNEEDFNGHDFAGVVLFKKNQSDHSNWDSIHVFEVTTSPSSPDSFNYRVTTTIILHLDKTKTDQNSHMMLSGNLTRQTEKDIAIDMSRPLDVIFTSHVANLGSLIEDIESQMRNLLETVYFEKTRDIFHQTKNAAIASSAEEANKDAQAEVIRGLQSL
Kind of assay: native gel or EMSA.

B1: yeast twinfilin (Twf1p), wild type, purified recombinant (natural protein)
chain: MSTQSGIVAEQALLHSLNENLSADGIVIIIAKISPDSTSVHQTQVARSFEELVQLASQEREPLYIFYKPEGLDKYFFVSFIPDGSPVRSRMLYASTKNTLARQVGSNSLSTEQPLITDAQDLVDLKNFDSARPAGQNKPLTHDEEMQIEINKQQALLRKNTSVKLVSQDSASPLSLTFRVNSEKPINEILDSEGKNLIIFQIDPSNETIQIVQSDTCPSVDELYIDLPGPSYTIFRQGDSSFFIYSCPSGSKVKDRMIYASNKNGFINYLKNDQKIAFSKVVEIGDFVELDKSLLMATNKEDSLDHGSNPDLPNKSNLKFNKPKGPLRKRRT
As for B1, the binding result in assay [1] and in assay [2] was “binds” in each case.

B2: Twf1-3p mutant yeast twinfilin (alanines in both ADF-H domains) (natural protein)
chain: MSTQSGIVAEQALLHSLNENLSADGIVIIIAKISPDSTSVHQTQVARSFEELVQLASQEREPLYIFYKPEGLDKYFFVSFIPDGSPVASAMLYASTKNTLARQVGSNSLSTEQPLITDAQDLVDLKNFDSARPAGQNKPLTHDEEMQIEINKQQALLRKNTSVKLVSQDSASPLSLTFRVNSEKPINEILDSEGKNLIIFQIDPSNETIQIVQSDTCPSVDELYIDLPGPSYTIFRQGDSSFFIYSCPSGSKVADAMIYASNKNGFINYLKNDQKIAFSKVVEIGDFVELDKSLLMATNKEDSLDHGSNPDLPNKSNLKFNKPKGPLRKRRT
For B2, in assay [2], the binding result is “binds”.

For the origin of these results see article PMC2198831 (The Journal of Cell Biology, 2001).
